# How the values were obtained:
# eIF4A1 [1] = target: T1, eIF4A1 (human, UniProt P60842 1-406); experiment: EMSA; silvestrol, MgCl2, no ATP; fully bound with and without scavenger AG-RNA; 20 mM HEPES/KOH pH 7.5, 100 mM KCl, 1 mM TCEP, 1% DMSO, 2 mM AMPPNP/MgCl2, 25 C, 60 min; EMSA gels 6-7% acrylamide-TB, 0.5x TB; conditions: protein: recombinant; tags: N-terminal 6xHis-SUMO, cleaved; label: EMSA: 5' Dy780 / 5' Dy680; FRET: 5' Cy3 / 5' Cy5; 5' overhang 20 nt
# eIF4A1 [2] = target: T1, eIF4A1; experiment: EMSA; silvestrol; multimerisation observed; 20 mM HEPES/KOH pH 7.5, 100 mM KCl, 1 mM TCEP, 1% DMSO, 2 mM AMPPNP/MgCl2, 25 C, 60 min; EMSA gels 6-7% acrylamide-TB, 0.5x TB; conditions: protein: recombinant; tags: N-terminal 6xHis-SUMO, cleaved; label: FAM
# eIF4A1 [3] = target: T1, eIF4A1; experiment: fluorescence anisotropy; 2 mM AMPPNP/MgCl2; affinity comparable to AG-RNA, Kd in figure only; 20 mM HEPES/KOH pH 7.5, 100 mM KCl, 1 mM TCEP, 1% DMSO, 2 mM AMPPNP/MgCl2, 25 C, 60 min; EMSA gels 6-7% acrylamide-TB, 0.5x TB; conditions: protein: recombinant; tags: N-terminal 6xHis-SUMO, cleaved; label: FAM or 5' Dy780
# T1 sequence (P60842 whole entry): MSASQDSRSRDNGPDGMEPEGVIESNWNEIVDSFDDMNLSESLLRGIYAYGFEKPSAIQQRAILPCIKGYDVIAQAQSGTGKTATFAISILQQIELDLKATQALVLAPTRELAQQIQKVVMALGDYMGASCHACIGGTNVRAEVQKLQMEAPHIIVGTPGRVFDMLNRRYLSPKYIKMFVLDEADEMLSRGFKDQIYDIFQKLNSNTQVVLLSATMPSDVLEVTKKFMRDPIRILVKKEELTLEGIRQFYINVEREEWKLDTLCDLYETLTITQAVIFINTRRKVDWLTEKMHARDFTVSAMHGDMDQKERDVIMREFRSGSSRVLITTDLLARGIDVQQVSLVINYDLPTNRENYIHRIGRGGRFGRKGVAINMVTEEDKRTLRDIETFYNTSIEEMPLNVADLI
binder,measurement,setting,value
AG-overhang 24 bp substrate (EMSA/FRET loading + reporter) (dsRNA) RNA 1: AGAGAGAGAGAGAGAGAGAGGAAAAAAUUAAAAAAUUAAAAAAC RNA 2: GUUUUUUAAUUUUUUAAUUUUUUC,binding result,eIF4A1 [1],binds
AGAGAGAGAG (ssRNA) [10 nt AG-RNA],binding result,eIF4A1 [2],binds
CAACAACAACAACAACAACA (ssRNA) [CAA-RNA (20 nt)],binding result,eIF4A1 [3],binds

# Reference: paper PMC9976904, “eIF4A1-dependent mRNAs employ purine-rich 5’UTR sequences to activate localised eIF4A1-unwinding through eIF4A1-multimerisation to facilitate translation”
